Measured values as given in patent US9266964.
Changes are numbered by the printed parent chain. Read-outs that look alike come from different tables or passages of the source.

Tests used:
[1] = target: T1, rat plasma kallikrein (rat, UniProt P14272 20-638, limits assumed); experiment: apparent inhibition constant (Ki,app) from enzyme inhibition of rodent pKal
T1 construct: also called rat pKal; rodent pKal
T1 sequence (P14272 20-638 limits assumed): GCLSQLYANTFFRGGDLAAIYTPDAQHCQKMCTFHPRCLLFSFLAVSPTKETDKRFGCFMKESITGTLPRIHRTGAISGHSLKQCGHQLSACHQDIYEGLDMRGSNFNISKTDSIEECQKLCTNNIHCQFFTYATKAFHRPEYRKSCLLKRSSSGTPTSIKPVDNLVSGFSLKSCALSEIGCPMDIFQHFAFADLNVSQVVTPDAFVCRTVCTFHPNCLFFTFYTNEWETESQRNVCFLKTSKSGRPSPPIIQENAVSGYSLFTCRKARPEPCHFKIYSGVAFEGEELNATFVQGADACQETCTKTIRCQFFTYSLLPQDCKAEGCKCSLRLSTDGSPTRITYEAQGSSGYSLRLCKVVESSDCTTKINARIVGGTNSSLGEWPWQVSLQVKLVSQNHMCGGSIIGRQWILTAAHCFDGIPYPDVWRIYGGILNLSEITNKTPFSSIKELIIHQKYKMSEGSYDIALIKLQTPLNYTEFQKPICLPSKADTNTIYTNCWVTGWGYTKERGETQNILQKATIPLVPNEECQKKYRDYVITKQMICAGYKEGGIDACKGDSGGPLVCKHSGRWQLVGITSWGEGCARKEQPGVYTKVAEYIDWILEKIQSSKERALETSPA

[2] = target: T2, mouse plasma kallikrein (mouse, UniProt P26262 20-638, limits assumed); experiment: as above
T2 construct: also called mouse pKal; rodent pKal
T2 sequence (P26262 20-638 limits assumed): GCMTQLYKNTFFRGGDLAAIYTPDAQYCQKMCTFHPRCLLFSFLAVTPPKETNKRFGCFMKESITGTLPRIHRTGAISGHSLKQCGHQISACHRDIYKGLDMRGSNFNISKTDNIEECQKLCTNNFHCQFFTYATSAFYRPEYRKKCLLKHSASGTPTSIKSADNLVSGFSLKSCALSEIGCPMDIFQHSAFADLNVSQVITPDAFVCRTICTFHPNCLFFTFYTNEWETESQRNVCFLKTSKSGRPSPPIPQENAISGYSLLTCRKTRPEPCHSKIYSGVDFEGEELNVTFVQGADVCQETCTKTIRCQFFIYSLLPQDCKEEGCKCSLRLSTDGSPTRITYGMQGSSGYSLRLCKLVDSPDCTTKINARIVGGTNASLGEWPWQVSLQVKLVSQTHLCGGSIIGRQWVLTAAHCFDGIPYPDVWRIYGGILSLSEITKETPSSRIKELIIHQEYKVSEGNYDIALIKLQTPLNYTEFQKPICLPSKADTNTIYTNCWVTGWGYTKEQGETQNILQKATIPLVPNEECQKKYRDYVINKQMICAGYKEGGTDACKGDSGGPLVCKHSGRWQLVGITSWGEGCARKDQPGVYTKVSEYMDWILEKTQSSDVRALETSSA

[3] = target: T3, human plasma kallikrein (human, UniProt P03952 20-390; P03952 391-638); experiment: apparent inhibition constant (Ki,app) from enzyme inhibition of human pKal; IgG
T3 construct: two disulfide-linked chains; also called pKal; human pKal
T3 sequence (P03952 20-390, chain 1 of 2): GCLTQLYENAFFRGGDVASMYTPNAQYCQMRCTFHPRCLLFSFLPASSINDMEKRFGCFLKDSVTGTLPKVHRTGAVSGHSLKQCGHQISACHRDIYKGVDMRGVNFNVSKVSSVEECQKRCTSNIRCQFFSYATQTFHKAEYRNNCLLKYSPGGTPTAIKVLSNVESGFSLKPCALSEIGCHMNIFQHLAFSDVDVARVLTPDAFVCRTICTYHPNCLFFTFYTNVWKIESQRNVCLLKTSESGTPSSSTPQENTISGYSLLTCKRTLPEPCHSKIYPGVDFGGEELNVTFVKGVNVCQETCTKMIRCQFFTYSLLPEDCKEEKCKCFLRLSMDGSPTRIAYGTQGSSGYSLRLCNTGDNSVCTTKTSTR
T3 sequence (P03952 391-638, chain 2 of 2): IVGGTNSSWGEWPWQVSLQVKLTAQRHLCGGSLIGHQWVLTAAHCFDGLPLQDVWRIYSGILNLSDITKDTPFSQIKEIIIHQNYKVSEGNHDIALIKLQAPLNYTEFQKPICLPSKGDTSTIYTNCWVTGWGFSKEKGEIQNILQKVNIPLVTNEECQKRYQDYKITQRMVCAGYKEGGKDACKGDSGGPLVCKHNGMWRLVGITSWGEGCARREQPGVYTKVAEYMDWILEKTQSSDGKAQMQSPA

[4] = target: T3, human plasma kallikrein; experiment: apparent inhibition constant (Ki,app) from enzyme inhibition of human pKal; Fab
[5] = target: T4, human plasma kallikrein (human, UniProt P03952 20-390; P03952 391-638); experiment: Ki,app as an IgG, steady state enzyme kinetics, inhibition of human pKal
T4 construct: two disulfide linked chains; also called pKal; human pKal
T4 sequence (P03952 20-390, chain 1 of 2): as the sequence (P03952 20-390, chain 1 of 2) above
T4 sequence (P03952 391-638, chain 2 of 2): as the sequence (P03952 391-638, chain 2 of 2) above

[6] = target: T4, human plasma kallikrein; experiment: Ki,app of IgG, enzyme inhibition of human pKal
[7] = target: T4, human plasma kallikrein; experiment: Ki,app, enzyme inhibition of pKal; antibody format not stated
[8] = target: T4, human plasma kallikrein; experiment: Ki,app, enzyme inhibition of pKal, Fab
[9] = target: T4, human plasma kallikrein; experiment: Ki,app, enzyme inhibition of pKal, IgG
[10] = target: T5, human plasma kallikrein (active form) (human, UniProt P03952 20-390; P03952 391-638); experiment: apparent Ki (Ki,app), inhibition of human pKal enzyme activity
T5 construct: also called pKal; human pKal

[11] = target: T5, human plasma kallikrein (active form); experiment: as above; remark: listed apart in the source
Protocol: (§1) Apparent Inhibition constants (K_{i,app} values) were measured by pre-incubating enzyme and inhibitor solutions prior to initiating the reactions with substrate. Enzyme and inhibitor were pre-incubated for 2 hours at 30° C. in a 96-well plate by adding 10 μL of a 10× enzyme solution and 10 μL of 10× inhibitor solutions to 70 μL of reaction buffer. Reactions were initiated by the addition of 10 μL of a 10× concentrated stock of substrate, and were monitored at 30° C. in a fluorescence plate reader with the excitation and emission wavelengths set at 360 nm/460 nm, respectively. Kinetic data were acquired by the increase in fluorescence, and initial rates for each condition were plotted against the total inhibitor concentration. The data was fit to the following equation for tight binding inhibitors: […]

[12] = target: T6, mouse plasma kallikrein (mouse, UniProt P26262 20-638, limits assumed); experiment: apparent Ki (Ki,app), inhibition of mouse pKal enzyme activity
T6 construct: also called mouse pKal
Protocol: as §1
T6 sequence (P26262 20-638 limits assumed): as the sequence (P26262 20-638 limits assumed) above

[13] = target: T6, mouse plasma kallikrein; experiment: apparent Ki (Ki,app), inhibition of rodent pKal enzyme activity
[14] = target: T7, rat plasma kallikrein (rat, UniProt P14272 20-638, limits assumed); experiment: as above
T7 construct: also called rat pKal
T7 sequence (P14272 20-638 limits assumed): as the sequence (P14272 20-638 limits assumed) above

[15] = target: T8, pKal catalytic domain Mutant 2 (human, UniProt P03952 391-638, limits assumed); experiment: apparent Ki (Ki,app), enzyme inhibition, pKal catalytic domain Mutant 2
T8 construct: domain: catalytic domain; Expressed in Pichia pastoris, purified by IMAC; not shown: His tag fusion
Protocol: as §1

[16] = target: T9, pKal catalytic domain Mutant 1 (human, UniProt P03952 391-638, limits assumed); experiment: apparent Ki (Ki,app), enzyme inhibition, pKal catalytic domain Mutant 1
T9 construct: domain: catalytic domain; Expressed in Pichia pastoris, purified by IMAC; not shown: His tag fusion
Protocol: as §1

[17] = target: T10, wild type pKal catalytic domain (human, UniProt P03952 391-638, limits assumed); experiment: apparent Ki (Ki,app), enzyme inhibition, wild type pKal catalytic domain
T10 construct: domain: catalytic domain; also called WT cat; Domain; not shown: His tag fusion
Protocol: as §1

[18] = target: T11, pKal catalytic domain Mutant 2 (human, UniProt P03952 391-638); experiment: enzyme inhibition, Ki,app on mutant and wild type pKal catalytic domain
T11 construct: Expressed in Pichia pastoris, purified by IMAC; not shown: His tag fusion
T11 sequence (P03952 other isoform, or with tags, fused parts or gaps mutant limits assumed): as the sequence (P03952 391-638, chain 2 of 2) above, with R161A, Q163A, Y165A, T168A, R170A counted along it

T5 sequence (P03952 20-390, chain 1 of 2): as the sequence (P03952 20-390, chain 1 of 2) above
T5 sequence (P03952 391-638, chain 2 of 2): as the sequence (P03952 391-638, chain 2 of 2) above
T10 sequence (P03952 391-638 limits assumed): as the sequence (P03952 391-638, chain 2 of 2) above
T8 sequence (P03952 other isoform, or with tags, fused parts or gaps mutant limits assumed): as the sequence (P03952 391-638, chain 2 of 2) above, with R161A, Q163A, Y165A, T168A, R170A counted along it
T9 sequence (P03952 other isoform, or with tags, fused parts or gaps mutant limits assumed): as the sequence (P03952 391-638, chain 2 of 2) above, with S88A, N91A, S135A, K136A counted along it

B1: M162-A04 (IgG) (antibody, V domains shown)
VH: EVQLLESGGGLVQPGGSLRLSCAASGFTFSHYIMMWVRQAPGKGLEWVSGIYSSGGITVYADSVKGRFTISRDNSKNTLYLQMNSLRAEDTAVYYCAYRRTGIPRRDAFDIWGQGTMVTVSS
VL: DIQMTQSPSTLSASVGDRVTITCRASQSISSWLAWYQQKPGKAPNLLIYKASTLESGVPSRFSGSGSGTEFTLTISSLQPDDFATYYCQQYNTYWTFGQGTKVEIK
notes: Human IgG; also called R84-H05; 559A-M0162-A04
Ki [1]: 2 nM
Ki [2]: 2 nM
Ki [3]: 2 nM

B2: M160-G12 (IgG) (antibody, V domains shown)
VH: EVQLLESGGGLVQPGGSLRLSCAASGFTFSHYLMTWVRQAPGKGLEWVSYISPSGGHTIYADSVKGRFTISRDNSKNTLYLQMNSLRAEDTAVYYCARVARGIAARSRTSYFDYWGQGTLVTVSS
VL: DIQMTQSPSFLSASVGDRVTITCRASQGISSYLAWYQQKPGKAPKLLIYAASTLQSGVPSRFSGSGSGTEFTLTISSLQPEDFATYYCQQLNSYPLTFGGGTKVEIK
notes: Human IgG; also called R84-D02
Ki [2]: < 1 nM
Ki [3]: 5.6 nM

B3: M142-H08 (Fab) (Fab, V domains shown)
VH: EVQLLESGGGLVQPGGSLRLSCAASGFTFSAYSMIWVRQAPGKGLEWVSYIRPSGGRTTYADSVKGRFTISRDNSKNTLYLQMNSLRAEDTAVYYCARGGLLLWFRELKSNYFDYWGQGTLVTVSS
VL: DIQMTQSPSSLSAFVGDRVTITCRASQPIDNYLNWYHQKPGKAPKLLIYAASRLQSGVPSRLSGSGFGTDFTLTISSLQPEDFGNYYCQQSYTVPYTFGGGTKVEIR
notes: Fab; printed HC runs into the start of CH1
Ki [2]: ~1 nM
Ki [4]: 0.6 nM

B4: X67-D03 (IgG) (antibody, V domains shown)
VH: B3 VH with F105N
VL: B3 VL
notes: printed HC runs into CH1; also called 559A-X67-D03
Ki [5]: 0.1 nM
Ki [6]: 0.1 nM

B5: X67-G04 (IgG) (antibody, V domains shown)
VH: B3 VH with F105A
VL: B3 VL
notes: printed HC runs into CH1
Ki [5]: 0.35 nM
Ki [6]: 0.35 nM

B6: X59-C07 (antibody, V domains shown)
VH: B2 VH
VL: DIQMTQSPSSLSASVGDRVTVTCRAGRSISTYVNWYQQKPGKAPKLLIYAASSLQSGVPSRFSGSRSGTDFTLTISSLQPEDFATYYCQQSQSTPYTFGQGTKLEVK
notes: Found by ROLIC light chain shuffling
Ki [7]: 6.1 nM

B7: X60-D01 (antibody, V domains shown)
VH: B2 VH
VL: DIQMTQSPGTLSLSPGERATLSCRASQIVSSRYLAWYQQRPGQAPRLLIYGAASRATGIPDRFSGSGSGTDFTLTISSLQAEDFATYYCQQTYSSPFTFGQGTKMEIK
notes: as for B6
Ki [7]: 2 nM

B8: X63-G10 (antibody, V domains shown)
VH: B2 VH
VL: DIQMTQSPDSLSASVGDRVTITCRASQSISNYLNWYQQKPGKAPKLLIYAASSLQSGVPSRFSGSGSGTDFTLTISGLQPEDFASYYCQQSYTSPYTFVQGTKLEIKR
notes: as for B6
Ki [7]: 9 nM

B9: X64-F04 (antibody, V domains shown)
VH: B2 VH
VL: DIQMTQSPATLSLSPGERATLSCRASQIVSSNYLAWYQQKPGQAPRLLIYGASNRATGIPDRFSGSGSGTEFTLTISSLQSEDFAIYYCQQSFNIPYTFGQGTRVDIK
notes: as for B6
Ki [7]: 1.9 nM

B10: X63-G06 (Fab, V domains shown)
VH: B2 VH
VL: DIQMTQSPGTLSLSPGERATLSCRTSQFVNSNYLAWYQQTPGQAPRLLIYGASSRATGIPDRFSGTGYGTDFTLTISRLEPEDYGTYYCQQSSRTPWTFGQGTRVEIK
notes: Non-germlined Fab discovered using ROLIC, same HC but different LC as M160-G12; also called X63-G06 (Fab)
Ki [8]: 0.4 nM

B11: X81-B01 (antibody, V domains shown)
VH: B2 VH
VL: B10 VL with D1E, Q3V, M4L, T40K, T66S, Y68S, Y84F, G85A, T86V, R104K
notes: also called X81-B01 (IgG)
Ki [9]: 0.2 nM

B12: X81-B01 (antibody, V domains shown)
VH: B2 VH
VL: B10 VL with D1E, Q3V, M4L, T40K, T66S, Y68S, Y84F, G85A, T86V, R104K
notes: also called X81-B01 (IgG); 559A-X81-B01
Ki [10]: 0.2 nM
Ki [11]: 0.1 nM
Ki [12]: 0.011 nM
Ki [13]: 0.011 nM
Ki [14]: 0.14 nM

B13: X67-D03 (antibody, V domains shown)
VH: B3 VH with F105N
VL: B3 VL
notes: Tested as IgG; Single point mutant (F to N in HC CDR3) of M142-H08; also called X67-D03 (IgG); 559A-X67-D03
Ki [10]: 0.1 nM
Ki [13]: 0.7 nM

B14: M145-D11 (Fab, V domains shown)
VH: EVQLLESGGGLVQPGGSLRLSCAASGFTFSHYRMSWVRQAPGKGLEWVSSIYPSGGRTVYADSVKGRFTISRDNSKNTLYLQMNSLRAEDTAVYYCAKDKFEWRLLFRGIGNDAFDIWGQGTMVTVSS
VL: QSVLTQPPSVSVSPGQTASITCSGDKLGDKYTSWYQQRPGQSPVLVIYQDIKRPSGIPERFSGSNSGNTATLTISGTQAMDEADYYCQAWDSPNARVFGSGTKVTVL
notes: also called 559A-M145-D11 (sFab); 559A-M0145-D11
Ki [15]: 0.1 nM
Ki [11]: 0.79 nM
Ki [12]: 800 nM
Ki [16]: 0.23 nM
Ki [17]: 0.16 nM

B15: M6-D09 (antibody, V domains shown)
VH: EVQLLESGGGLVQPGGSLRLSCAASGFTFSFYYMVWVRQAPGKGLEWVSVIYPSGGITVYADSVKGRFTISRDNSKNTLYLQMNSLRAEDTAVYYCARDKWAVMPPYYYYAMDVWGQGTTVTVSS
VL: DIQMTQSPSSLSASVGDRVTITCRASQSIRNYLNWYQQKPGKAPNLLIYAASTLQSGVPARFSGSGSGTDFTLTISSLQPEDFATYYCQQLSGYPHTFGQGTKLEIK
notes: Group 3 antibody; also called M06-D09; 559A-M06-D09
fold increase of Ki,app against the wild type catalytic domain [18]: ~5 fold
